Here are results for one molecule from patent publication US20260250338A1.

The assay concerns the target CD16aF allelic variant of CD16a expressed on Jurkat cells (human) (UniProt P08637). Put plainly: flow cytometry on Jurkat cells expressing CD16aF, conditions as in Example 2. On the technique in general: A flow cytometer gives signals particle by particle.

Sequence of CD16aF allelic variant of CD16a expressed on Jurkat cells (human) (P08637 17-254, change not shown): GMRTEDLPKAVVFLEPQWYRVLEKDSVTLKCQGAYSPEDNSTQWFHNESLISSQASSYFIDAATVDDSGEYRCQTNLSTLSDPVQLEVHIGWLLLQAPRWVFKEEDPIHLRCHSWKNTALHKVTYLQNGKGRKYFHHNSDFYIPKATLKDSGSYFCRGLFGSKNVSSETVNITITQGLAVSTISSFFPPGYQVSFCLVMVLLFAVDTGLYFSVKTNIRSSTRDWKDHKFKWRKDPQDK

B1: Construct 25 (SEQ ID NO: 94), CD117 × CD16a, CD117 binder SEQ ID NO: 84 N-terminal of DARPin #7 (designed binder)
chain: MRGSHHHHHHGSDLGQKLLKAAQYGQDDEVRILLAAGADVNAKDWAGKTPLHVAAEAGHLEIVEVLLKAGADVNAKDKAGETPLHLAAEQGHLEIVEVLLKAGADVNAQDEWGQTPADLAAYYGLEDIAEVLQKAAGSPTPTPTTPTPTPTTPTPTPTGSDLGQKLLRAAKKGQDDEVRELLKAGADVNAKDEQGWTPLHNAAWKGHLEIVEVLLKAGADVNAKDVFDWTPLHVAAHFGHLEIVEVLLKAGADVNAQDRAGETPADLAAQAGHEDIAEVLQKAA
In the case of B1, the EC50 was found to be 23.2 nM.

A word on the EC50: it is the concentration giving half of the maximal effect. A low value points to an effect from little substance.
